Data set [1] can be described thus: Thermal stability by Circular Dichroism (CD) spectroscopy. The class given is physicochemical. As to conditions: CD at 222 nm, 20° C. to 90° C., 2 μM in PBS pH7.4; DARPins with C-terminal Cysteine-containing tag (SEQ ID NOs: 15, 16, 18). The protocol:
Labelling of proteins conjugated to a chelator with a radionuclide may require harsh conditions, including high temperatures. The thermal stability and the propensity to unfold/refold of 2D DARPins MAM279, MAM283 and MAM282 were assessed using Circular Dichroism (CD) spectroscopy.
Samples of the DARPins were diluted to 2 μM in PBS, pH7.4. The assessment was done using a Jasco J-815 spectrophotometer. The Tm (melting temperature) of the selected proteins was determined by CD as a parameter for thermal stability. In brief, the ellipticity was recorded at […] and a temperature range from 20° C. to 90° C. was applied followed by reverse scan to record the refolding behavior. The Tm of the selected ankyrin repeat protein constructs is the midpoint of the protein unfolding. Spectra from 190-250 nm were recorded before and after the temperature scan.

Data set [2] is described as follows: Pharmacokinetic analysis in WT BALBc mice (serum, ELISA). Conditions: natural lead-labelled DOTAM conjugate 1 mg/kg i.v., Tables 16, 17. The class given is in vivo, mouse. Background: ELISA stands for enzyme-linked immunosorbent assay.
Data set [3] has as its target T1, human DLL3 expressed on HEK293T-huDLL3 cells (Homo sapiens, UniProt Q9NYJ7).
T1 construct: expressed in transfected cells; host or cells: HEK293T-hDLL3
T1 sequence (Q9NYJ7 27-618): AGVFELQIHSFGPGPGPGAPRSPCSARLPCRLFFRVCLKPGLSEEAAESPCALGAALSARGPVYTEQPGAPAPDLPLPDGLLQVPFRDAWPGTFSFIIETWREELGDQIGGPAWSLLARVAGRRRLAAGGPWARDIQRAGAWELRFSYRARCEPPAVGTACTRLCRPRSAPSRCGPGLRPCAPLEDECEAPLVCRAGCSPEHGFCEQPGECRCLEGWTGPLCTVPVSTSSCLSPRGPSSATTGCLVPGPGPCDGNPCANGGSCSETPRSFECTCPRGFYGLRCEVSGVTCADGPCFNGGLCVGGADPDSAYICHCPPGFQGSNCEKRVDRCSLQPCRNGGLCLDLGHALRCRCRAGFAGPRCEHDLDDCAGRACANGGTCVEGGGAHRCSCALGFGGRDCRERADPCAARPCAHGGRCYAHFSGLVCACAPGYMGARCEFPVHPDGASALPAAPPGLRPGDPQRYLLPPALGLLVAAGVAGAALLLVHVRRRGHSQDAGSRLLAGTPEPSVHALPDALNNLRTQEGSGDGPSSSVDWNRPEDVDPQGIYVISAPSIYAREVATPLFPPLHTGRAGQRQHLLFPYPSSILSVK
Description: Cell binding titration on HEK293T-hDLL3 cells. The class given is cell-based. Conditions: presence of human serum albumin (10 μM in FIG. 9 legend, 10 pM in the source), read-out: Cell binding EC50, with HSA.

In the next data set the target is human serum albumin (Homo sapiens, UniProt P02768). Briefly: SPR binding to human serum albumin (Example 1). Conditions: immobilized HSA, 1:1 Langmuir, Table 2. Also noted: purchased CSL. The procedure: Similarly, a SPR assay was used to determine the binding kinetics to human or mouse serum albumin. […] All analytes (3-fold dilution ranging from 1000-12.35 nM) were injected in succession for 240 s (25 μl/min) and dissociation was recorded for 600 s (25 μl/min). […] The obtained SPR traces were used to determine the ankyrin repeat protein-serum albumin interaction parameters, summarized in Table 2.

Broadly, the Cmax is the peak of the concentration-time curve. As usually defined, the Tmax is the time from dosing to the highest level. Usually EC50 stands for the concentration that produces a half-maximal response. As usually defined, the Kd is the free concentration of one partner at which half of the binding sites on the other are occupied at equilibrium, for simple one-to-one binding.

B1: MAM282: Two domain (2D) ankyrin repeat protein: serum albumin-specific domain (SEQ ID NO: 7), PT linker, DLL3-specific domain (SEQ ID NO: 2) (protein)
chain: DLGKKLLEAARAGQDDEVRELLKAGADVNAKDYFSHTPLHLAARNGHLKIVEVLLKAGADVNAKDFAGKTPLHLAADAGHLEIVEVLLKAGADVNAQDIFGKTPADIAADAGHEDIAEVLQKAAGSPTPTPTTPTPTPTTPTPTPTGSDLGKKLLAAAREGQDDEVRELLKAGADVNAKDIWGQTPLHIAAWFGHLEIVEVLLKAGADVNAKDQTGHTPLHLAAKFGHLEIVEVLLKAGADVNAQDLLGRTPADLAAEEGHEDIAEVLQKAA
modifications: Ankyrin repeat protein (MAM282)
With B1, the “melting temperature (Tm)” value in data set [1] was “above 90 °C”. In data set [2], the AUCINF_pred was 8.435 µM·h, the “AUC_% Back_Ext_pred” value was determined as 0%, the “AUC_% Extrap_pred” value is 17% and the AUClast came out at 7.0389 µM·h. Moreover, in data set [2], the CI_pred was determined as 4 mL/h/kg, the peak level (Cmax) was 461 nM, the HL_Lambda_z was 28.5 h and the Tmax came out at 1.98 min. The molecule also gave a Vss_pred in data set [2] of 0.153 L/kg. Also, the EC50 in data set [3] turned out to be 19.6 nM. In addition, in the data set with human serum albumin, the affinity, expressed as Kd, was 74.3 nM; the “Koff HSA” value stood at 0.00889 s⁻¹; the “Kon HSA” value is 120000 M⁻¹ s⁻¹.

Source of the values: patent US20250332297A1, “DLL3-SPECIFIC BINDING CONSTRUCTS AND THEIR USE IN RADIOTHERAPY” (MOLECULAR PARTNERS AG, priority 2024, published 2025).
